{
  "source": "paper PMC11320570",
  "about": "(2024)",
  "test_in_all_cases": "ELISA",
  "key": {"[1]": {"target": "T1, DENV-2 EDIII wild-type Fc-fusion antigen (dengue virus serotype 2 (DENV-2), …)", "T1 chain": "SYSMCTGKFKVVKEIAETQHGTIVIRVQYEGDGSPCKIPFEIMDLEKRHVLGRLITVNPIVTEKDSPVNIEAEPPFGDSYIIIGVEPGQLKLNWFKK"}, "R2N_1G11": {"target": "R2N_1G11"}, "R3N_2D3": {"target": "R3N_2D3"}, "[2]": {"target": "soluble E80 protein of DENV-1 (dengue virus serotype 1 (DENV-1))"}, "[3]": {"target": "soluble DENV-2 envelope protein (D2E80) (dengue virus serotype 2 (DENV-2), …)"}, "[4]": {"target": "soluble E80 protein of DENV-3 (dengue virus serotype 3 (DENV-3))"}},
  "data": [
    {"binder": "2H12 mouse antibody (antibody, V domains shown) VH: DVQLVEPGAELVQPGASVKMSCKASGYTFSSYWINWEKQRPGKGLEWIGNIYPGSGTVNYDDKFKSKATLTIDTSSNTAYMQLSSLTSEDSAVYYCTRGGSHAMDYWGQGTSVTVSS VL: DIVMTQSQKFMSTSVGDRVSITCKASQNVRTSVAWYQQKPGQSPKALIYLASNRHTGVPDRFTGSGSGTDFTLTISNVQSEDLADYFCLQHWTYPYTFGGGTKLEIK", "values": [
      {"measurement": "Kd", "setting": "[1]", "value": 0.39, "unit": "nM"}
    ]},
    {"binder": "2C8 mouse antibody (antibody, V domains shown) VH: EVKLVESGGGLVQPGGSLSLSCAASGFTFTDYYMTWVRQPPGKALEWLALIRNKASGYTTEYSASVKGRFTISRDNSQSILYLQMNALRAEDSATYYCTRAKWDGHYFDYWGQGTTLTVSS VL: DIQMTQSPASLSVSVGETVTITCRATKNIYNNLAWYQQKQGRSPQLLVYAATNLADGVPSRFSGSGSGTQFSLRINSLQSEDFGNYYCQHFWHTPWTFGGGTKLEIK", "values": [
      {"measurement": "Kd", "setting": "[1]", "value": 0.22, "unit": "nM"}
    ]},
    {"binder": "soluble E80 protein of DENV-4 (domain or fragment) MRCVGVGNRDFVEGVSGGAWVDLVLEHGGCVTTMAQGKPTLDFELIKTTAKEVALLRTYCIEASISNITTATRCPTQGEPYLKEEQDQQYICRRDVVDRGWGNGCGLFGKGGVVTCAKFSCSGKITGNLVQIENLEYTVVVTVHNGDTHAVGNDIPNHGVTATITPRSPSVEVKLPDYGELTLDCEPRSGIDFNEMILMKMKKKTWLVHKQWFLDLPLPWAAGADTSEVHWNYKERMVTFKVPHAKRQDVTVLGSQEGAMHSALTGATEVDSGDGNHMFAGHLKCKVRMEKLRIKGMSYTMCSGKFSIDKEMAETQHGTTVVKVKYEGAGAPCKVPIEIRDVNKEKVVGRIISSTPFAEYTNSVTNIELEPPFGDSYIVIGVGDSALTLHWFRKG", "values": [
      {"measurement": "Kd", "setting": "R2N_1G11", "value": "> 67", "unit": "nM"},
      {"measurement": "Kd", "setting": "R3N_2D3", "value": 0.32, "unit": "nM"}
    ]},
    {"binder": "3H5 mouse antibody (antibody, V domains shown) VH: QVQLQQSGAEVARPGASVKLSCKASGYTFTSYWLQWVKQRPGQGLEWIGAIWPGDDDTRYAQKFQGKATMTADKSSSTAYIQLSNLASEDSAVYYCARKGGFAMDYWGQGTSVTVSS VL: NIVMTQSPTSLAVSLGQRATISCRASESVDSFGKSFMHFYQQKPGQPPKLLIHLASNLESGVPARFTGRGSRTDFTLTIDPVEADDAATYYCQQNNEVPFTFGSGTKLEVK", "values": [
      {"measurement": "Kd", "setting": "[1]", "value": 1.06, "unit": "nM"}
    ]},
    {"binder": "513 engineered and humanized antibody (antibody, V domains shown) VH: QVQLVQSGAEVKKPGASVKVSCKAGFNIKDVYMSWVRQAPEQGLEWMGRIDPENGDTKYDPKLQGRVTMTADTSTNTAYMELRSLRSDDTAVYYCARGWEGFAYWGQGTLVTVSS VL: DIVMTQSPASLAVSLGQRATISCRASENVDKYGNSFMHWYQQKPGQPPKLLIYRASELQWGVPDRFSGSGSGTDFTLTISSLQAEDVAVYYCQRSNEVPWTFGQGTKLEIK", "values": [
      {"measurement": "Kd", "setting": "[2]", "value": 0.054, "unit": "nM"},
      {"measurement": "Kd", "setting": "[3]", "value": 0.087, "unit": "nM"},
      {"measurement": "Kd", "setting": "[4]", "value": 0.46, "unit": "nM"},
      {"measurement": "Kd", "setting": "[1]", "value": 0.066, "unit": "nM"}
    ]}
  ]
}
